In US6884600B1, “Protein phosphatase-1 catalytic subunit interactions” (Medical Research Council London, priority 1996, dated 2005):
Values belong to the molecule of their own block, whether it stands above or below them.

Tests used:
myosin = molecular target: T1, myosin (Gallus gallus, UniProt P10587); assay: Myosin binding assay (pelleting with myosin); parameters: species or system chicken; conditions: myosin 1 μM, 15 min 0° C.
T1 construct: from tissue; host or cells: chicken gizzard
Procedure: The PP1 catalytic subunit (PP1c), PP1M, or PP1M lacking the M21 subunit, PP1M(ΔM21), each at 30 nM, were incubated for 15 min at 0° C. with 1 μM myosin and centrifuged (see Methods of Example 3). […] The results shown are the average (±S.E.M.) for three separate experiments each assayed in duplicate.
(A); PP1M, M110-(M1-S477) and GST-M110-(M377-K976), each at 30 nM were incubated for 15 min at 0° C. with 1 μM myosin and centrifuged. The supernatants (S), resuspended pellets (P) and the suspension before centrifugation (T, total) were electrophoresed on 12% SDS/polyacrylamide gels, transferred to nitrocellulose and immunoblotted with antibodies raised against the PP1M holoenzyme. No protein was pelleted in the absence of myosin (not shown). The positions of the marker proteins myosin heavy chain (200 kDa), glycogen phosphorylase (97 kDa), bovine serum albumin (66 kDa), ovalbumin (43 kDa), carbonic anhydrase (29 kDa) and soybean trypsin inhibitor (20 kDa) are indicated. (B) The experiments were carried out as in (A), except that the M110 fragments and M21 subunit were used at 100 nM, the 8.5 kDa M110-(K933-I1004) fragment was electrophoresed on a 16.5% polyacrylamide gel and immunoblotting was carried out with affinity purified antibodies (see Methods). A small amount of M110-(R714-I1004) pelleted in the absence of myosin. […] No other protein was pelleted in the absence of myosin.
(A); Myosin (1 μM) was mixed with 50 μM, 20 μM or 10 μM M21 subunit to give the molar ratios M21:myosin dimer indicated. After 15 min at 0° C., the solutions were centrifuged and the supernatants (S), resuspended pellets (P) and the suspension before centrifugation (T, total) were electrophoresed on 12% SDS/polyacrylamide gels and stained with Coomassie blue. The positions of the myosin heavy chain (MHC) and the M21 subunit are indicated. The myosin light chains migrate faster than the M21 subunit and are not visible at these loadings.
Myosin binding assays. Myosin (0.5 mg/ml, 1 μM in terms of myosin heavy chains) in 10 mM Hepes pH 7.5, 50 mM KCl, 5 mM MgCl2, 0.1% (by vol) 2-mercaptoethanol, was mixed with PP1M, M21 subunit, or fragments of the M110 and M21 subunits, at the concentrations indicated in figure legends. After incubation for 15 min at 0° C., the solutions were centrifuged for 2 min at 13,000×g, the supernatants removed, and the pellets washed twice in 10 mM Hepes pH 7.5, 50 mM KCl, 5 mM MgCl2, 0.1% (by vol) 2-mercaptoethanol before resuspension in 50 mM Tris-HCl pH 7.5, 0.1 mM EGTA, 0.03% (by mass) Brij 35, 0.6 M NaCl, 0.1% (by vol) 2-mercaptoethanol. Aliquots of the supernatant, the resuspended pellet and the suspension before centrifugation were either assayed for myosin P-light chain phosphatase activity or denatured in SDS and analysed by SDS/polyacrylamide gel electrophoresis.

M21 subunit = assay: Far Western blotting: interaction with the M21 subunit; assay type: binding, chicken; conditions: for recognised by digoxigenin-labelled M21 subunit in Far Western blotting: probe 0.2 μg/ml
Procedure: A) PP1M 5 μg (track 1), 10 μg bacterial extract containing M110-(R714-I1004) (track 2), MBP-M110-(R714-I004) 1 μg (track 3), MBP-M110-(R714-L934) 1 μg (track 4), MBP-M110-(K933-I1004) 1 μg (track 5), MBP 1 μg (track 6), M110-(M1-E309) 2 μg (lane 7) and M110-(M1-S477) 2 μg (track 8) were run on a 12% SDS/polyacrylamide gel and stained with Coomassie Blue. B) same as A) except that 10-fold less protein was electrophoresed and after transfer to nitrocellulose the proteins were probed with digoxigenin-labelled M21 subunit (0.2 μg/ml). C) same as B) except that, after electrophoresis, the proteins were transferred to nitrocellulose and probed with digoxigenin-labelled M21-(M1-L146) (0.2 μg/ml).
A) GST-M21 5 μg (track 1), M21 5 μg (track 2), M21-(M1-L146) 5 μg (track 3), M21-(M1-E110) 20 μg (track 4) and M21-(E110-K186) 5 μg (track 5) were run on 16.5% polyacrylamide gels and stained with Coomassie Blue. The marker proteins ovalbumin (43 kDa) and carbonic anhydrase (29 kDa) are indicated. B) GST-M21 0.5 μg (track 1), M21 0.5 μg (track 2), M21-M1-L146) 0.5 μg (track 3), M21-(M1-E110) 5 μg (track 4) and M21-(E110-K186) 5 μg (track 5) were electrophoresed as in A) and after transfer to nitrocellulose the blots were probed with digoxigenin-labelled MBP-M110-(K933-I1004) (0.2 μg/Ml). C) same as B) except that, after electrophoresis, the proteins were transferred to nitrocellulose and probed with digoxigenin-labelled M21 subunit (0.2 μg/ml).
PP1M (0.5 μAg) was electrophoresed on a 12% SDS/polyacrylamide gel, transferred to nitrocellulose and probed with digoxigenin-labelled M21 subunit (0.2 μg/ml) (track 1) or digoxigenin-labelled M21-(M1-L146) (0.2 μg/ml) (track 2). The positions of the M110 subunit, the M21 subunit and PP1c are marked.
Proteins were labelled with digoxigenin and Far Western analyses carried out as described, except that the digoxigenin-labelled probe was used at a concentration of 0.2 μg/ml instead of 2 μg/ml. SDS/polyacrylamide gel electrophoresis was carried out on 7.5-15% gels according to Laemmli and on 16.5% gels according to Schagger and von Jagow. Protein was estimated according to Bradford.

T1 sequence (P10587 whole entry): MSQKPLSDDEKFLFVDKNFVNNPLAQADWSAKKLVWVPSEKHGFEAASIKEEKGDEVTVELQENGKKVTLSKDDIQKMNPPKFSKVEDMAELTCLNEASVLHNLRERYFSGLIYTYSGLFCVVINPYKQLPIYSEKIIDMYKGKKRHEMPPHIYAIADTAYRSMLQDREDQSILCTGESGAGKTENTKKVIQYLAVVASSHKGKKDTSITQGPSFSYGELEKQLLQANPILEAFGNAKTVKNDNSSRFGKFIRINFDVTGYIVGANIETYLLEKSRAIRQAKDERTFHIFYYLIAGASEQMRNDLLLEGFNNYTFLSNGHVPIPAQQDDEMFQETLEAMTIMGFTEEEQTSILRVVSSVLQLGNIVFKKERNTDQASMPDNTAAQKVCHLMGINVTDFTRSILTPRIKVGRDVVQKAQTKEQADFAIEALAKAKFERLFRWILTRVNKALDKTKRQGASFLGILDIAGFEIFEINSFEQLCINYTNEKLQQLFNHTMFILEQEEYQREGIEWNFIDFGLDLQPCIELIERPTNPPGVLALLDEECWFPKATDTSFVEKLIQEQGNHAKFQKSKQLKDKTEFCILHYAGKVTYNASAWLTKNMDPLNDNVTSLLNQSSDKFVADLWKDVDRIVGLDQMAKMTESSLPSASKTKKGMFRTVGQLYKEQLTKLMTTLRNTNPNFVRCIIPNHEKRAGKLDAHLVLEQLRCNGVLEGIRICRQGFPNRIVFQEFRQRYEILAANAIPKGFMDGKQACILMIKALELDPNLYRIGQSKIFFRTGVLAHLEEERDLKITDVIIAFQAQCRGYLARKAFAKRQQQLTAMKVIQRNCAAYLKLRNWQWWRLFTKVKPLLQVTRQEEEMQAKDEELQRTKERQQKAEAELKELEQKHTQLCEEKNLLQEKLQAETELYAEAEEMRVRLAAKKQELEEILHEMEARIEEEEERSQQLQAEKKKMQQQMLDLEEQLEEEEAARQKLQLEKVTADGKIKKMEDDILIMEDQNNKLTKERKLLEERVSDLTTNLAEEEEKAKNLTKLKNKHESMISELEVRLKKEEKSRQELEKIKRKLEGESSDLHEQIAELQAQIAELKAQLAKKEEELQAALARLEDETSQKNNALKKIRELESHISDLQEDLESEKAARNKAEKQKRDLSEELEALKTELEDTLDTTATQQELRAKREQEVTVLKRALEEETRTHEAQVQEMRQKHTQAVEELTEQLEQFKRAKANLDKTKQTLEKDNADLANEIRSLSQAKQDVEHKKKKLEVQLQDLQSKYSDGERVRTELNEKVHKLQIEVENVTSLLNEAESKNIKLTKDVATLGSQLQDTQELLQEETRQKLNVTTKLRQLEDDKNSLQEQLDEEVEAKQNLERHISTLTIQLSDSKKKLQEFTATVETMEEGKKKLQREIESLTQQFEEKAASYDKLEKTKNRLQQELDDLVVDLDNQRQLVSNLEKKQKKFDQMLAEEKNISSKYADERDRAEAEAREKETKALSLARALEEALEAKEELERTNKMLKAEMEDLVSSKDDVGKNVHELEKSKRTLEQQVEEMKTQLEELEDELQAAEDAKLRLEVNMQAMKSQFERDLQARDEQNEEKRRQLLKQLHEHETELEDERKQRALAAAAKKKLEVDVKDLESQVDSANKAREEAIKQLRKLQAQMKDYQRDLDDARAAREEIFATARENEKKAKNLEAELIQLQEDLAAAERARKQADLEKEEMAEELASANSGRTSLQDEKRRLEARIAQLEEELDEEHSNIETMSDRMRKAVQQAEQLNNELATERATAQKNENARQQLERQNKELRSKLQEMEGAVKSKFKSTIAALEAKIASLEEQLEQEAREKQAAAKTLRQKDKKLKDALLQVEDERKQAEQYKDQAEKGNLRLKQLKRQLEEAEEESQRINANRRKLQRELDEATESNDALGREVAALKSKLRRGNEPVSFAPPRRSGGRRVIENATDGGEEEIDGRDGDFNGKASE
T1 sequence (P02612 whole entry partner): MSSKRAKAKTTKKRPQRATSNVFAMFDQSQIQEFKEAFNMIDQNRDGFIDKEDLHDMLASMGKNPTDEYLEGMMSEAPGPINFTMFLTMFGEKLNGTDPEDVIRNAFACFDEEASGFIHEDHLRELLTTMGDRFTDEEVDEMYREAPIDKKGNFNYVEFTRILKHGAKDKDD
T1 sequence (P02607 whole entry partner): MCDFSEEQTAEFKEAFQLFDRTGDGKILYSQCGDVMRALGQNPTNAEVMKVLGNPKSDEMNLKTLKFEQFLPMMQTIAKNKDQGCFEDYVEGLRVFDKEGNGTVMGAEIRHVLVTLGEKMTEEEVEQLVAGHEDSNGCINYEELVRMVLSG

binding to myosin (myosin): bound to myosin
B1: GST-M110-(M377-K976): GST fusion of the C-terminal 600 residues of the M110 subunit from rat aorta (protein)
chain: MASVTNAHTASTQAAPAAVTTPTLSSNQGTPTSPVKKFPTSTTKISPKEEERKDESPASWRLGLRKTGSYGALAEITASKEAQKEKDTAGVIRSASSPRLSSSLDNKEKEKDNKGTRLAYVAPTIPRRLGSTSDIEEKENRESSNLRTSSSYTRRKWEDDLKKNSSINEGSTYHRSTSNRLWAEDSTEKEKDSAPTAATILVAPTVVSAAASSTTALTTTTAGTLSSTSEVRERRRSYLTPVRDEESESQRKARSRQARQSRRSTQGVTLTDLQEAEKTIGRSRSTRTREQENEEKDKEEKEKQDKEKQEEKKESEVSREDEYKQKYSRTYDETYARYRPVSTSSSSTPSSSSLSTLGSSLYASSQLNRPNSLVGITSAYSRGLTKDNEREGEKKEEEKEGEDKSQPKSIRERRRPREKRRSTGVSFWTQDSDENEQERQSDTEDGSSKRDTQTDSVSRYDSSSTSSSDRYDSLLGRSASYSYLEERKPYGSRLEKDDSTDFKKLYEQILAENEKLKAQLHDTNMELTDLKLQLEKATQRQERFADRSLLEMEKRERRALERRISEMEEELKMLPDLKADNQRLKDENGALIRVISKLSK
modifications: left off: a dimerising Fc or GST
notes: GST fusion of the C-terminal 600 residues of the M110 subunit from rat aorta

binding to myosin (myosin): bound to myosin
B2: GST-M21: GST fusion of the chicken gizzard M21 subunit (M1-K186) (protein)
chain: MSSLFTRSKEYTRSRKSQSDSPPSSPSPIAKTLRHERLSRLEAATTPATSDSYSDRASSRSSAYSRRENRLAALSSRAEEESNRDYKKLYESALSENQKLKSKLQEAQLELADIKSKLEKAAQQKHEKTSDRSSMLEMEKREKRALERKLSEMEEEMKILTELKSDNQRLKDENGALIRVISKLSK
modifications: left off: a dimerising Fc or GST; small tags and cut ends

B3: MBP-M110-(R714-I1004): maltose binding protein fusion of M110-(R714-I1004) (protein)
chain: RSTRTREQENEEKEKEEKEKQDKEKQEEKKESETKDDDYRQRYSRTVEEPYHRYRPTSTSTSTSSTSSLSTSTSSLSSSSQLNRPNSLIGITSAYSRSGTKESEREGGKKEEEKEEDKSQPKSIRERRRPREKRRSTGVSFWTQDSDENEQEHQSDSEEGTNKKETQSDSLSRYDTGSLSVSSGDRYDSAQGRSGSQSYLEDRKPYCSRLEKEDSTDFKKLYEQILAENEKLKAQLHDTNMELTDLKLQLEKTTQRQERFADRSLLEMEKRVSGKSQYLLGGKKSSRKKDI
modifications: left off: large carriers
digoxigenin-labelled probe recognises the full length M21 subunit and M21(M1-L146) in Far Western blotting (M21 subunit): recognised

B4: M110-(R714-L934): chicken gizzard M110 fragment, residues 714-934 (protein)
chain: RSTRTREQENEEKEKEEKEKQDKEKQEEKKESETKDDDYRQRYSRTVEEPYHRYRPTSTSTSTSSTSSLSTSTSSLSSSSQLNRPNSLIGITSAYSRSGTKESEREGGKKEEEKEEDKSQPKSIRERRRPREKRRSTGVSFWTQDSDENEQEHQSDSEEGTNKKETQSDSLSRYDTGSLSVSSGDRYDSAQGRSGSQSYLEDRKPYCSRLEKEDSTDFKKLGTGRRFTTS
modifications: left off: large carriers
recognised by digoxigenin-labelled M21 subunit in Far Western blotting (M21 subunit): not

B5: MBP-M110-(R714-L934): maltose binding protein fusion of M110-(R714-L934) (protein)
chain: B4 chain
modifications: left off: large carriers
digoxigenin-labelled probe recognises the full length M21 subunit and M21(M1-L146) in Far Western blotting (M21 subunit): not

B6: MBP-M110-(K933-I1004): maltose binding protein fusion of M110-(K933-I1004) (protein)
chain: KLYEQILAENEKLKAQLHDTNMELTDLKLQLEKTTQRQERFADRSLLEMEKRVSGKSQYLLGGKKSSRKKDI
modifications: left off: large carriers
digoxigenin-labelled probe recognises the full length M21 subunit and M21(M1-L146) in Far Western blotting (M21 subunit): recognised

B7: M110 subunit: 110 kDa myofibrillar-binding subunit of PP1 (protein)
chain: MKMADAKQKRNEQLKRWIGSETDLEPPVVKRKKTKVKFDDGAVFLAACSSGDTEEVLRLLERGADINYANVDGLTALHQACIDDNVDMVKFLVENGANINQPDNEGWIPLHAAASCGYLDIAEYLISQGAHVGAVNSEGDTPLDIAEEEAMEELLQNEVNRQGVDIEAARKEEERIMLRDARQWLNSGHINDVRHAKSGGTALHVAAAKGYTEVLKLLIQARYDVNIKDYDGWTPLHAAAHWGKEEACRILVENLCDMEAVNKVGQTAFDVADEDILGYLEELQKKQNLLHSEKREKKSPLIESTANLDNNQTQKTFKNKETLIMEQEKNASSIESLEHEKADEEEEGKKDESSCSSEEEEDDDSESEAETDKAKTLANANTTSTQSASMTAPSVAGGQGTPTSPLKKFPTSTTKVSPKEEERKDESPASWRLGLRKTGSYGALAEITASKEAQKEKDSAGVIRSASSPRLSSSLDNKEKEKDGKGTRLAYVAPTIPRRLASTSDIDEKENRDSSASSIRSGSSYARRKWEEDVKKNSLNEGPTSLNTSYQRSGSFGRRQDDLVSSNVPSTASTVTSSAGLQKTLPASANTTTKSTTGSTSAGVQSSTSNRLWAEDSTEKEKDSVPTAVTVPVAPSVVNAAATTTAMTTATSGTVSSTSEVRERRRSYLTPVRDEESESQRKARSRQARQSRRSTQGVTLTDLQEAEKTIGRSRSTRTREQENEEKEKEEKEKQDKEKQEEKKESETKDDDYRQRYSRTVEEPYHRYRPTSTSTSTSSTSSLSTSTSSLSSSSQLNRPNSLIGITSAYSRSGTKESEREGGKKEEEKEEDKSQPKSIRERRRPREKRRSTGVSFWTQDSDENEQEHQSDSEEGTNKKETQSDSLSRYDTGSLSVSSGDRYDSAQGRSGSQSYLEDRKPYCSRLEKEDSTDFKKLYEQILAENEKLKAQLHDTNMELTDLKLQLEKTTQRQERFADRSLLEMEKRVSGKSQYLLGGKKSSRKKDI
recognised by digoxigenin-labelled M21 subunit in Far Western blotting (M21 subunit): recognised
